Test [1] addresses T1, Yeast NMT (partially purified from S. cerevisiae) (Saccharomyces cerevisiae, UniProt P14743).
T1 sequence (P14743 1-455): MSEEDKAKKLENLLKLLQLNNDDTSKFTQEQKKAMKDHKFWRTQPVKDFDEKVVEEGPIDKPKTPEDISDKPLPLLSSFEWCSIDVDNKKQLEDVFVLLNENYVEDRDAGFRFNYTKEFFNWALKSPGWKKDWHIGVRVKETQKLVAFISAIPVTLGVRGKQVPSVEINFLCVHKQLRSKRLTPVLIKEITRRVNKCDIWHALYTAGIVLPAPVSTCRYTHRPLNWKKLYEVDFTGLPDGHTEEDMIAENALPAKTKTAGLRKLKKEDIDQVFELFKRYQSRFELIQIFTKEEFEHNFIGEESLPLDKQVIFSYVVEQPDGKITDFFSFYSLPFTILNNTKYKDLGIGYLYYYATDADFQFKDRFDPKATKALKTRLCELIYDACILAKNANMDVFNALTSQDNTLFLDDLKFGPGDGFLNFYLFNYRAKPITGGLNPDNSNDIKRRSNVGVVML
Description: coupled in vitro assay for NMT activity, Yeast NMT. The format is biochemical. Conditions: for Vmax, Yeast NMT: percentage of Vmax with GNAAAARR and myristoyl-CoA; for Km: peptide substrate varied, 570 fold purified preparation. The protocol:
(§1) In vitro assay system for NMT activity. To assess the peptide and acyl-CoA substrate specificities of E. coli-derived S. cerevisiae NMT, crude lysates or partially purified enzyme preparations were added to a coupled in vitro assay system [Towler and Glaser, Proc. Natl. Acad. Sci. USA 83, 2812-2816 (1986)]. The first step of this assay involves enzymatic conversion of radiolabeled fatty acids to their CoA thioesters by Pseudomonas acyl-CoA ligase. This ligase is largely nonspecific for fatty acid substrates [Shimizu et al., Anal. Biochem. 107, 193-198 (1980)]. Octapeptide substrates and NMT were then added to produce acylpeptides. Acylpeptides were purified from the reaction mixture by trichloroacetic acid/methanol precipitation and C18 reverse phase HPLC using a linear gradient of acetonitrile in water [Towler and Glaser, Proc. Natl. Acad. Sci. USA 83, 2812-2816 (1986)].
(§2) The peptide Km and Vmax values shown in the above Table I are averages obtained from 4- or 5-point Lineweaver-Burke plots. These plots were produced using data generated in at least three independent in vitro NMT assays. Varying concentrations of peptides were assayed with 15 μM myristate to determine peptide Km and Vmax values. […] Yeast NMT was from a 570 fold purified preparation [Towler et al., Proc. Natl. Acad. Sci. USA 84, 2708-2712 (1987)]. Synthetic peptide substrates are represented by their conventional one letter amino acid code. […] ND=not determined.

Test [2] addresses T2, E. coli-derived S. cerevisiae NMT (Total E. coli NMT) (Saccharomyces cerevisiae, UniProt P14743, S2A).
T2 construct: intact 53 kDa (codon 2 Ser to Ala from cloning) plus 45 kDa truncated form
T2 sequence (P14743 1-455 S2A): T1 sequence (P14743 1-455) with S2A
Description: coupled in vitro assay for NMT activity, Total E. coli NMT. Type of test: biochemical. The conditions noted are these: 15 μM myristate; for Vmax, Total E. coli NMT: peptide substrate, percentage of Vmax with GNAAAARR and myristoyl-CoA; for Km: peptide substrate varied. The procedure: as §1, §2

Test [3] concerns the target T3, 45 kDa E. coli NMT (NMT missing the NH2-terminal 39 residues) (Saccharomyces cerevisiae, UniProt P14743).
T3 construct: S2A lies in the removed part
T3 sequence (P14743 40-455): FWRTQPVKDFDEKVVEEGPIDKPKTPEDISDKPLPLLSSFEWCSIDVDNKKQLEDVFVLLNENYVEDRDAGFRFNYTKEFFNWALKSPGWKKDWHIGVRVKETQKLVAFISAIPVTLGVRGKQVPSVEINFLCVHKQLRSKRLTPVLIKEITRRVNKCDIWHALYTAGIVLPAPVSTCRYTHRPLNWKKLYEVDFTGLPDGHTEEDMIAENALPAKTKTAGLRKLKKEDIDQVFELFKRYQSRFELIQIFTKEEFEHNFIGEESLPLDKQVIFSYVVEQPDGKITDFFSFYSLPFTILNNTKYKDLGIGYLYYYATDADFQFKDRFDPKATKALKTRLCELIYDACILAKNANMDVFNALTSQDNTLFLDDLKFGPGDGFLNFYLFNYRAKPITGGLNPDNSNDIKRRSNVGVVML
Description: coupled in vitro assay for NMT activity, 45 kDa E. coli NMT. The conditions noted are these: for Km: peptide substrate varied; for Vmax, 45 kDa E. coli NMT: percentage of Vmax with GNAAAARR and myristoyl-CoA. The format is biochemical, S. cerevisiae. The protocol: as §1
To obtain a homogenous preparation of the enzyme, E. coli-produced NMT was further purified by Mono S fast protein liquid chromatography (FPLC).
as §2

Test [4] has as its target T4, yeast NMT coexpressed with murine PK-A C-subunit in E. coli strain JM101 (Saccharomyces cerevisiae, UniProt P14743, S2A).
T4 construct: metabolic labeling in cells
Description: [3H]Fatty acid labeling of PK-A C-subunit produced in E. coli coexpressing yeast NMT1. The format is cell-based, S. cerevisiae. Conditions: E. coli JM101 with NMT1 and wild type Cα plasmids after induction, SDS-PAGE and fluorography. The procedure:
[^3 H]Fatty acid labeling of PK-A C-subunit produced in E. coli. Four ml cultures of the double transformants were shaken at 37° C. to an OD600 of 0.5 in LB broth+100 μg/ml ampicillin and 100 μg/ml kanamycin sulfate. Isopropyl-β-D-thiogalactopyranoside (IPTG) was then added to a final concentration of 1 mM to induce NMT production (see Results, below). When the cultures reached OD600 =1.0 (approximately 40 min later), nalidixic acid was added to a final concentration of 50 μg/ml to induce C-subunit production (see Results, below). [^3 H]Myristate (New England Nuclear; 39.3 Ci/mmol, 113 μCi added per ml of culture), [^3 H]palmitate (New England Nuclear; 30 Ci/mmol, 143 μCi/ml), or [^3 H]10-(propoxy)decanoate [Heuckeroth and Gordon, Proc. Natl. Acad. Sci. USA 86, 5262-5266 (1989)] (31.7 Ci/mmol, 800 μCi/ml) was added simultaneously with the nalidixic acid. Cultures were shaken for an additional 20 min at 37° C. and the cells were harvested by centrifugation. Lysates were prepared by boiling E. coli contained in the pellet for 10 min in 40 μL of a solution of 125 mM Tris, pH 8.0, 4% SDS, 20% glycerol, 10% β-mercaptoethanol, and 0.2M dithiothreitol. Cell debris was removed by centrifugation and 15 μl aliquots of the supernatant were subjected to SDS-PAGE [Laemmli, Nature 227, 680-685 (1970)] and subsequent fluorography using EN^3 HANCE (New England Nuclear) autoradiography enhancer. For Western blot analyses, 50 μg of reduced and denatured lysate proteins, prepared from unlabeled E. coli producing Gly^2 -C-subunit or Ala^2 -C-subunit, were separated by SDS-PAGE, electroblotted onto nitrocellulose [Burnette, Anal. Biochem. 112, 195-230 (1981)], and the filters probed with polyclonal, monospecific rabbit antisera raised against purified mouse C-subunit. Antigen-antibody complexes were visualized with ^125 I-protein A [Burnette, supra.].

[5] abbreviates: peptide substrate, 15 μM myristate.
Where [6] appears, read: fatty acyl-CoA substrate, 60 μM GNAAAARR

The record followed here is patent US5436138A, “Method for protein N-myristoylation” (Washington University, priority 1993, dated 1995).

Usually Km stands for the concentration of substrate that gives half-maximal velocity.

Residue numbers refer to the chain shown, from its start. Where a SMILES comes first, the peptide text is derived from it. Some results are limits rather than exact numbers.

For `C[C@H](NC(=O)[C@H](C)NC(=O)[C@H](C)NC(=O)[C@H](CC(N)=O)NC(=O)CN)C(=O)N[C@@H](C)C(=O)N[C@@H](CCCNC(=N)N)C(=O)N[C@@H](CCCNC(=N)N)C(N)=O` (H-GNAAAARR-NH2), the “Vmax, Yeast NMT” value in test [1] (setting [5]) was found to be 100%. Also, the “Vmax, Total E. coli NMT” value in test [2] stood at 100%. Also, in test [3] (15 μM myristate), the Km worked out at 62.5 µM. The “Vmax, 45 kDa E. coli NMT” value in test [3] (setting [5]) is on record as 100%.

On to `C[C@H](NC(=O)[C@H](C)NC(=O)[C@H](CC(N)=O)NC(=O)CN)C(=O)N[C@@H](CO)C(=O)N[C@@H](C)C(=O)N[C@@H](CCCNC(=N)N)C(=O)N[C@@H](CCCNC(=N)N)C(N)=O` (H-GNAASARR-NH2), for which the “Vmax, Yeast NMT” value in test [1] (setting [5]) was 3%. Besides, the “Vmax, Total E. coli NMT” value in test [2] is given as 3.6%. Further, in test [3] (setting [5]), the “Vmax, 45 kDa E. coli NMT” value was 4.9%. Moreover, the “reduction in apparent Km” value in test [3] (relative to GNAAAARR-NH2, Mono S purified 45 kDa NMT) was 100 fold.

In the case of `CCCOCCCCCCCCCC(=O)SCCNC(=O)CCNC(=O)[C@H](O)C(C)(C)COP(=O)(O)OP(=O)(O)OC[C@H]1O[C@@H](n2cnc3c(N)ncnc32)[C@H](O)[C@@H]1OP(=O)(O)O` [11-oxamyristoyl-CoA], the “Vmax, Yeast NMT” value in test [1] (setting [6]) turned out to be 270%. In addition, in test [3] (setting [6]), the “Vmax, 45 kDa E. coli NMT” value is listed as 450%.

On to `CCCCCCCCCCCCCC(=O)SCCNC(=O)CCNC(=O)[C@H](O)C(C)(C)COP(=O)(O)OP(=O)(O)OC[C@H]1O[C@@H](n2cnc3c(N)ncnc32)[C@H](O)[C@@H]1OP(=O)(O)O` [Myristoyl-CoA], for which the “Vmax, Yeast NMT” value in test [1] (setting [6]) came to 100%. For the same compound, the “Vmax, 45 kDa E. coli NMT” value in test [3] (setting [6]) worked out at 100%.

In the case of `CCCCCCCCCCCCCCCC(=O)SCCNC(=O)CCNC(=O)[C@H](O)C(C)(C)COP(=O)(O)OP(=O)(O)OC[C@H]1O[C@@H](n2cnc3c(N)ncnc32)[C@H](O)[C@@H]1OP(=O)(O)O` [Palmitoyl-CoA], the “Vmax, Yeast NMT” value in test [1] (setting [6]) was found to be 21%. Besides, in test [3] (setting [6]), the “Vmax, 45 kDa E. coli NMT” value was 22.4%.

For `CCCOCCCCCCCCCC(=O)O` [[^3 H]10-(propoxy)decanoic acid, 10-(propoxy)decanoic acid], the “incorporation of [3H]fatty acid into the C-subunit of PK-A” value in test [4] was “effective alternative substrate for NMT that could be incorporated into the C-subunit of PK-A”; in test [4] (listed as [^3 H]11-oxamyristate), “could also be labeled in a Gly^2 dependent manner”.

Take ANAAAARR: in test [1] (setting [5]), the “Vmax, Yeast NMT” value was “Not a substrate”. Besides, the “Vmax, Total E. coli NMT” value in test [2] is on record as “Not a substrate”. Further, the “Vmax, 45 kDa E. coli NMT” value in test [3] (setting [5]) is reported as “Not a substrate”.

“ASSKSKPK [synthetic octapeptide, one letter amino acid code]”: in test [1] (setting [5]), the “Vmax, Yeast NMT” value is reported as “Not a substrate”. Besides, the “Vmax, Total E. coli NMT” value in test [2] was “Not a substrate”. For the same compound, the “Vmax, 45 kDa E. coli NMT” value in test [3] (setting [5]) is reported as “Not a substrate”.

“GDAAAARR [synthetic octapeptide substrate, one letter amino acid code]”: the “Vmax, Yeast NMT” value in test [1] (setting [5]) is less than 2%. Moreover, in test [2], the Km turned out to be 645 µM and the “Vmax, Total E. coli NMT” value turned out to be 4.2%. Further, in test [3] (setting [5]), the “Vmax, 45 kDa E. coli NMT” value is less than 2%.

For the compound “GNAADARR [synthetic octapeptide substrate, one letter amino acid code]”, the “Vmax, Yeast NMT” value in test [1] (setting [5]) is reported as less than 2%. For the same compound, in test [2], the Km worked out at 503 µM and the “Vmax, Total E. coli NMT” value turned out to be 4.9%. Also, the “Vmax, 45 kDa E. coli NMT” value in test [3] (setting [5]) is reported as less than 2%.

As to “GPAAAARR [synthetic octapeptide substrate, one letter amino acid code]”, the “Vmax, Yeast NMT” value in test [1] (setting [5]) was less than 2%. Moreover, in test [2], the Km stood at 7100 µM and the “Vmax, Total E. coli NMT” value is reported as 21.6%. In addition, the “Vmax, 45 kDa E. coli NMT” value in test [3] (setting [5]) is reported as less than 2%.

With “GSAAAARR [synthetic octapeptide substrate, one letter amino acid code]”, in test [1] (15 μM myristate), the Km was 1700 µM. Besides, the “Vmax, Yeast NMT” value in test [1] (setting [5]) worked out at 50%. In test [2], the Km came to 697 µM and the “Vmax, Total E. coli NMT” value turned out to be 27.6%.

As to “GSAASARR [synthetic octapeptide substrate, one letter amino acid code]”, in test [1] (15 μM myristate), the Michaelis constant (Km) is 3 µM. Besides, in test [1] (setting [5]), the “Vmax, Yeast NMT” value came out at 34%. Also, in test [2], the Km amounted to 2.1 µM and the “Vmax, Total E. coli NMT” value is 29%.

With “GSSKSKPK [synthetic octapeptide substrate, one letter amino acid code]”, the Km in test [1] (15 μM myristate) was 40 µM; in test [2], 48.5 µM; in test [3] (15 μM myristate), 66 µM. In test [1] (setting [5]), the “Vmax, Yeast NMT” value is recorded as 43%. Further, the “Vmax, Total E. coli NMT” value in test [2] was 33%. In test [3] (setting [5]), the “Vmax, 45 kDa E. coli NMT” value is on record as 52%.

Take “GYAAAARR [synthetic octapeptide, one letter amino acid code]”: in test [1] (setting [5]), the “Vmax, Yeast NMT” value is listed as “Not a substrate”. The “Vmax, Total E. coli NMT” value in test [2] is reported as less than 2%. Also, in test [3] (setting [5]), the “Vmax, 45 kDa E. coli NMT” value is less than 2%.

As for MGNAAAARR, the “Vmax, Yeast NMT” value in test [1] (setting [5]) is “Not a substrate”. For the same compound, the “Vmax, Total E. coli NMT” value in test [2] is on record as “Not a substrate”. Further, in test [3] (setting [5]), the “Vmax, 45 kDa E. coli NMT” value is reported as “Not a substrate”.
